Source: patent publication US20240400657A1 (MorphoSys, published 2024)
Changes are numbered by the printed parent chain.

T1: cynomolgus C5aR_NT-bio peptide (cynomolgus monkey, biotin tag (position not given))
T1 construct: Chemically synthesized linear peptide (Genscript); also called cynomolgus C5aR N-terminal peptide; cynomolgus C5aR peptide
T1 peptide: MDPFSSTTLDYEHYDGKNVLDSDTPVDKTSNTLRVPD

T2: human C5aR_NT-bio peptide (human, biotin tag (position not given))
T2 construct: Chemically synthesized linear peptide (Genscript); also called human C5aR N-terminal peptide; human C5aR peptide
T2 peptide: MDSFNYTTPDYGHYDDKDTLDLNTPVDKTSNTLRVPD

T3: engineered version of human C5aR expressed on CHO cells of the PathHunter β-arrestin assay (DiscoveRx) (human, UniProt P21730 1-350)
T3 sequence (looked up): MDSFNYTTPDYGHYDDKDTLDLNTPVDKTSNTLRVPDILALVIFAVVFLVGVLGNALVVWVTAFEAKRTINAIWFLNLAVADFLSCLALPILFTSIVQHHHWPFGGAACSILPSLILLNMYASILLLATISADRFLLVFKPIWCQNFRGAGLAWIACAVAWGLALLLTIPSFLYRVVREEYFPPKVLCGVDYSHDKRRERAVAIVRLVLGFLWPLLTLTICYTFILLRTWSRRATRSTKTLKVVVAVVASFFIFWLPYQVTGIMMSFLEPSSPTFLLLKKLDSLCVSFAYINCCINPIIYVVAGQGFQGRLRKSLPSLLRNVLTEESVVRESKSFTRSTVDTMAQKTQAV

B1: MAB #2 (antibody, human IgG1, lambda)
heavy: EVQLVESGGGLVKPGGSLRLSCAASGFTFSSYAMHWVRQAPGKGLEWVGRIKSVAQGGTTDYAAHVKGRFTISRDDSKNTLYLQMNSLKTEDTAVYYCARVSHSTFDVWGQGTLVTVSSASTKGPSVFPLAPSSKSTSGGTAALGCLVKDYFPEPVTVSWNSGALTSGVHTFPAVLQSSGLYSLSSVVTVPSSSLGTQTYICNVNHKPSNTKVDKRVEPKSCDKTHTCPPCPAPEAEGAPSVFLFPPKPKDTLMISRTPEVTCVVVDVSHEDPEVKFNWYVDGVEVHNAKTKPREEQYNSTYRVVSVLTVLHQDWLNGKEYKCKVSNKALPSSIEKTISKAKGQPREPQVYTLPPSREEMTKNQVSLTCLVKGFYPSDIAVEWESNGQPENNYKTTPPVLDSDGSFFLYSKLTVDKSRWQQGNVFSCSVMHEALHNHYTQKSLSLSPGK
light: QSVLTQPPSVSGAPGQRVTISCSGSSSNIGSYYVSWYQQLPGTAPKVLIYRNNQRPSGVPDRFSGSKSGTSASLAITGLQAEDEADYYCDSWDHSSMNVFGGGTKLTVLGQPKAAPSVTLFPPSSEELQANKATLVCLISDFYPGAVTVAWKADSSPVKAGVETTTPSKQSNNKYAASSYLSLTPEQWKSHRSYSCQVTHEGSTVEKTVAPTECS
notes: lambda 1 light chain
B2: MAB #1 (antibody, human IgG1, lambda)
heavy: B1 heavy with V54K, H103F
light: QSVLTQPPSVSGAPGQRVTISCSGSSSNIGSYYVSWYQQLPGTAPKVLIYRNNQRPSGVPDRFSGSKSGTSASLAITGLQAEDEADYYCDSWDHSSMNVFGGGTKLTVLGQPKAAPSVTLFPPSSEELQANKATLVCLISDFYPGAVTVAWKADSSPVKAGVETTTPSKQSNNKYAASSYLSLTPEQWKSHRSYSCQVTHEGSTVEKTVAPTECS
notes: lambda 1 light chain, VH3-15 framework

Tests used:
[1] = target: T1, cynomolgus C5aR_NT-bio peptide; assay: BLI (Octet), apparent (bivalent)
[2] = target: T1, cynomolgus C5aR_NT-bio peptide; assay: BLI (Octet HTX), biotinylated peptide on SA sensors, IgG as analyte, 1:1 fit, apparent (bivalent); fast koff
[3] = target: T2, human C5aR_NT-bio peptide; assay: Protein Panel Profiling (3P), MSD ECL, coated antigen, IgG 10 nM
Method: (§1) 32 different proteins and controls were coated on two 384-well MSD standard plates at a concentration of 1.0 μg/mL at 4° C. over night. The coating solution was discarded and plates were blocked with 50 μL 3% (w/v) BSA in PBS for one hour at RT on a microtiter plate shaker (˜500 rpm) followed by three washing steps with 50 μL washing buffer (PBS with 0.05% (v/v) Tween 20). IgG samples were diluted to 100 nM and 10 nM in assay buffer (PBS with 0.5% (w/v) BSA, 0.05% (v/v) Tween 20). As controls, isotype control antibody MOR03207 (IgG1f_AEASS) and assay buffer were used. Samples and controls were added at 30 μL/well and incubated for three hours at RT on a microtiter plate shaker. The plates were washed three times and 30 μL detection antibody (ECL-labeled anti-human Fab) were added per well and incubated for one hour on a microtiter plate shaker (˜500 rpm). After washing the MSD plate and adding 35 μL/well MSD Read Buffer T with surfactant, electro-chemiluminescence signals were detected using a SECTOR® Imager S600 instrument (Meso Scale Diagnostics).
(§2) For evaluation, binding signals of the antibody sample to a certain protein were divided by the respective binding signals of the reference antibody MOR03207 resulting in a binding ratio (BR). The cumulative binding ratio (CBR) of all proteins except the controls (25 in total) was then calculated: CBR up to 150 indicates an IgG without detectable unspecific binding. Values above 150 indicates an IgG with increased unspecific binding compared to the reference antibody MOR03207.

[4] = target: Lysozyme; assay: as above
Method: as §1, §2

[5] = target: T4, anti-human Fab (Dianova); assay: as above
T4 construct: control of the 3P panel; it captures human IgG as such, so a ratio of 1 means a signal equal to that of MOR03207
Method: as §1, §2

[6] = target: RNase B; assay: as above
Method: as §1, §2

[7] = target: T5, Cell surface rec. 2_Fc (h); assay: as above
T5 construct: identity not disclosed
Method: as §1, §2

[8] = target: Ovalbumin; assay: as above
Method: as §1, §2

[9] = target: RNase A; assay: as above
Method: as §1, §2

[10] = target: T6, anti-human Fc; assay: as above
T6 construct: control of the 3P panel; it captures human IgG as such, so a ratio of 1 means a signal equal to that of MOR03207
Method: as §1, §2

[11] = target: T7, Cell surface rec. 3_Fc (h); assay: as above
T7 construct: identity not disclosed
Method: as §1, §2

[12] = target: T8, Fc (h); assay: as above
T8 construct: '(h)' on the sheet read as human
Method: as §1, §2

[13] = target: T3, engineered version of human C5aR …; assay: cell-based or functional assay
[14] = target: T2, human C5aR_NT-bio peptide; assay: BLI (Octet HTX), biotinylated peptide on SA sensors, IgG as analyte, 1:1 fit, apparent (bivalent)
[15] = target: T9, Serum albumin (h) (human); assay: Protein Panel Profiling (3P), MSD ECL, coated antigen, IgG 100 nM
T9 construct: '(h)' on the sheet read as human
Method: as §1, §2

[16] = target: Trypsin inhibitor; assay: as above
Method: as §1, §2

[17] = target: T4, anti-human Fab (Dianova); assay: as above
Method: as §1, §2

[18] = target: Fibrinogen (b) (bovine); assay: as above
Method: as §1, §2

[19] = target: T10, Cell surface rec. 1_Lys (h); assay: as above
T10 construct: identity not disclosed
Method: as §1, §2

[20] = target: Amyloglycosidase; assay: as above
Method: as §1, §2

[21] = target: GFP; assay: as above
Method: as §1, §2

[22] = target: Cytochrome C; assay: as above
Method: as §1, §2

[23] = target: Trypsinogen; assay: as above
Method: as §1, §2

[24] = target: T11, Protein A; assay: as above
T11 construct: control of the 3P panel
Method: as §1, §2

[25] = target: RNase A; assay: as above
Method: as §1, §2

[26] = target: T7, Cell surface rec. 3_Fc (h); assay: as above
Method: as §1, §2

[27] = target: Lectin; assay: as above
Method: as §1, §2

[28] = target: bovine transferrin (bovine, UniProt Q29443 20-704); assay: as above
Chain of bovine transferrin (Q29443 20-704 limits assumed): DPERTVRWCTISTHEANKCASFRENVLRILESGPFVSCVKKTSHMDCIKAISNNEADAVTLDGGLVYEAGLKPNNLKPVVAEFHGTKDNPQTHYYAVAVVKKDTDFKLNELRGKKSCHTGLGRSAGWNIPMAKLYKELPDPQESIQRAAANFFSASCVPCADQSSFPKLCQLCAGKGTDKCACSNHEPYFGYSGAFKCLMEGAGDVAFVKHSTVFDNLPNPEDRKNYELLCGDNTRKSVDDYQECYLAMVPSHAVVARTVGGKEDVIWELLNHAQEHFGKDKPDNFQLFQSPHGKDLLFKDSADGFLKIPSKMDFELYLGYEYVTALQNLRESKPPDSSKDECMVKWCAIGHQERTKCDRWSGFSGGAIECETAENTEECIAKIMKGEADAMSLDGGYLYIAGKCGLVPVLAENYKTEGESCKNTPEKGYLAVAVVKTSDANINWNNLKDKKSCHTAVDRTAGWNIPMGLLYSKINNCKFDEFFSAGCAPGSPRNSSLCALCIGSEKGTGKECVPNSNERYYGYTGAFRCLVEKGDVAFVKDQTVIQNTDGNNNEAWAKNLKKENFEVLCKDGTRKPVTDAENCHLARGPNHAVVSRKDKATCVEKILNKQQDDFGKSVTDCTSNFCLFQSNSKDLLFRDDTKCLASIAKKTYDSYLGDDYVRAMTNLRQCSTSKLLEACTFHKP
Method: as §1, §2

Chain of RNase A (P61823 27-150): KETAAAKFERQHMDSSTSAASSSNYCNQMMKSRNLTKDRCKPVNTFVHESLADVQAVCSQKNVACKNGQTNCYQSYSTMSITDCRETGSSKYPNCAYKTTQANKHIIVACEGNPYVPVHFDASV
Chain of RNase B (P61823 27-150): as above
Chain of Lysozyme (P00698 19-147): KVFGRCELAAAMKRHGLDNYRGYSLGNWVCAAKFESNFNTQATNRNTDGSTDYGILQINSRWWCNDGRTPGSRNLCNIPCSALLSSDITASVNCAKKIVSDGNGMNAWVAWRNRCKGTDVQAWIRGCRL
Chain of Fibrinogen (b) (bovine) (P02672 20-615, chain 1 of 3): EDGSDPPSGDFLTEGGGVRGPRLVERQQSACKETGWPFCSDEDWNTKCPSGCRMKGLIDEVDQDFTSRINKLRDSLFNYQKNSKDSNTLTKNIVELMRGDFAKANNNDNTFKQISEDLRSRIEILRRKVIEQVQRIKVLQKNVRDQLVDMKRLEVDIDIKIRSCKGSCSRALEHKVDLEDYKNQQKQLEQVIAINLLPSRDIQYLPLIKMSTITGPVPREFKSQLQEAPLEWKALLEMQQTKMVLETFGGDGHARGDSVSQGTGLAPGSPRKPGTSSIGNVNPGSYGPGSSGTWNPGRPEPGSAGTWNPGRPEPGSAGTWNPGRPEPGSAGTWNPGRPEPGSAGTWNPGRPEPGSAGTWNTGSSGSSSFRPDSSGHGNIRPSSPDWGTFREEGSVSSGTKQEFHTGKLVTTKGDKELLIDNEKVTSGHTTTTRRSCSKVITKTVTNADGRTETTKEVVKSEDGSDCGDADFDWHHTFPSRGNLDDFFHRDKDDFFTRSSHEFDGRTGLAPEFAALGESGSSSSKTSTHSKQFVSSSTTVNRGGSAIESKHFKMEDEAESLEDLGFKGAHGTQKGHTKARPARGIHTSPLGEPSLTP
Chain of Fibrinogen (b) (bovine) (P02676 whole entry, chain 2 of 3, further chain): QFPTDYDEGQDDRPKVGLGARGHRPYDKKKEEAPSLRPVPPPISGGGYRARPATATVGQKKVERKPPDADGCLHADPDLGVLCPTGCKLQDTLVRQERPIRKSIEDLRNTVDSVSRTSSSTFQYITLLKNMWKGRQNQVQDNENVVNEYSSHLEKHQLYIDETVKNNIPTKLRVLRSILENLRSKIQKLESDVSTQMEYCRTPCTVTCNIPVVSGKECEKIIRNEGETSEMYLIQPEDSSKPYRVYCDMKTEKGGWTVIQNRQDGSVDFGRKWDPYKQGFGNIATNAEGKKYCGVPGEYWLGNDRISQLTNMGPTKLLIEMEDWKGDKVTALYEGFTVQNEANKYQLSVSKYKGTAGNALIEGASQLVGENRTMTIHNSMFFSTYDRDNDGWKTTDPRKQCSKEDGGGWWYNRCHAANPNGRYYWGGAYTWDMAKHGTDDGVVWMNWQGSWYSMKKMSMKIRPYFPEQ
Chain of Fibrinogen (b) (bovine) (P12799 25-444, chain 3 of 3, further chain): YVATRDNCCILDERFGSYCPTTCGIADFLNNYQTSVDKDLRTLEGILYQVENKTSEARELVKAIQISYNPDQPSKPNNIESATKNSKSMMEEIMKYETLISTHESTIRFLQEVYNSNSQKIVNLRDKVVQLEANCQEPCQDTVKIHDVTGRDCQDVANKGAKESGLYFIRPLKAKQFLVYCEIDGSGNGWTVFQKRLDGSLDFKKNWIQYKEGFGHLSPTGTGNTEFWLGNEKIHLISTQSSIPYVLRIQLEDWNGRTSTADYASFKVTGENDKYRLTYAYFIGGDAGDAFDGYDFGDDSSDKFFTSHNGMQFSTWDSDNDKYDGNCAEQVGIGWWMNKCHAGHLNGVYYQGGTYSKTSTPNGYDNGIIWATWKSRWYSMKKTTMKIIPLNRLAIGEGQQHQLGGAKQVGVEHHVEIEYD
Chain of Ovalbumin (P01012 2-386): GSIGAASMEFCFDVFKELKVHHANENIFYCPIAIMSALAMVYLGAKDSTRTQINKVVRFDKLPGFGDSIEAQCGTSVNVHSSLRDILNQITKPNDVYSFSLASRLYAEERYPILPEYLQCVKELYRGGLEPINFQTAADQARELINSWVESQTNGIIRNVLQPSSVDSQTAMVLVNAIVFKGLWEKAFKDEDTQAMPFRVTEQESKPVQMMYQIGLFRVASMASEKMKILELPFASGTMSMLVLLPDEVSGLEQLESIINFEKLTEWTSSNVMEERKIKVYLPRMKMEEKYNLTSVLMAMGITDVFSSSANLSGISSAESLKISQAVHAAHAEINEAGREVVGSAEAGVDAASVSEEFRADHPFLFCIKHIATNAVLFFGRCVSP
T9 sequence (P02768 25-609): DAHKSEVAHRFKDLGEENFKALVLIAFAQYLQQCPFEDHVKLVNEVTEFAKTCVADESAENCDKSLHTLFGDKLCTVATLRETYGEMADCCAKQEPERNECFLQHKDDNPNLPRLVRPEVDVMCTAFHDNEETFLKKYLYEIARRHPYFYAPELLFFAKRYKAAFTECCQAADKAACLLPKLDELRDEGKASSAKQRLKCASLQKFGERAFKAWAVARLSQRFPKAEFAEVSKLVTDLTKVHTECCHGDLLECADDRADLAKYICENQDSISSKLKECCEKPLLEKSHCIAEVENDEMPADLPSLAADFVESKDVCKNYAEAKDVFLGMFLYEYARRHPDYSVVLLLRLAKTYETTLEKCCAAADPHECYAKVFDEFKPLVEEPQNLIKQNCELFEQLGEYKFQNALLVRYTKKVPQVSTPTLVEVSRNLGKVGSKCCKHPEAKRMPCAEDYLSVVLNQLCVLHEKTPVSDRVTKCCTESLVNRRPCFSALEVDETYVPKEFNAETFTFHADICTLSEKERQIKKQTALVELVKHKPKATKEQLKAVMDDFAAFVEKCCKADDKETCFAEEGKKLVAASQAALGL

Binder | fold weaker binding than to the human C5aR peptide [1] | Kd [2] | koff [2] | kon [2] | binding ratio (signal / signal of MOR03207) [3] | binding ratio (signal / signal of MOR03207) [4] | binding ratio (signal / signal of MOR03207) [5] | binding ratio (signal / signal of MOR03207) [6] | binding ratio (signal / signal of MOR03207) [7] | binding ratio (signal / signal of MOR03207) [8] | binding ratio (signal / signal of MOR03207) [9] | binding ratio (signal / signal of MOR03207) [10] | binding ratio (signal / signal of MOR03207) [11] | binding ratio (signal / signal of MOR03207) [12] | [%] inhibition at 1.2 nM C5a and 50 nM IgG, β-arrestin recruitment [13] | [%] inhibition at 11 nM C5a and 50 nM IgG, β-arrestin recruitment [13] | [%] inhibition at 100 nM C5a and 50 nM IgG, β-arrestin recruitment [13] | Kd [14] | koff [14] | kon [14] | further results
B1 | ~1000 fold | 140 nM | 0.0189 s⁻¹ | 138000 M⁻¹ s⁻¹ | 46 | 1 | 1 | 1 | 1 | 1 | 2 | 1 | 2 | 1 | 90.5% | 75.2% | 31.2% | 0.29 nM | 0.000111 s⁻¹ | 378000 M⁻¹ s⁻¹ | binding ratio (signal / signal of MOR03207) [15]: 2; binding ratio (signal / signal of MOR03207) [16]: 7; binding ratio (signal / signal of MOR03207) [17]: 1; binding ratio (signal / signal of MOR03207) [18]: 2; binding ratio (signal / signal of MOR03207) [19]: 2; binding ratio (signal / signal of MOR03207) [20]: 2; binding ratio (signal / signal of MOR03207) [21]: 2; binding ratio (signal / signal of MOR03207) [22]: 2; binding ratio (signal / signal of MOR03207) [23]: 2; binding ratio (signal / signal of MOR03207) [24]: 1; binding ratio (signal / signal of MOR03207) [25]: 6; binding ratio (signal / signal of MOR03207) [26]: 2; binding ratio (signal / signal of MOR03207) [27]: 2; binding ratio (signal / signal of MOR03207) [28]: 9
B2 | ~1000 fold | 63 nM | 0.0108 s⁻¹ | 171000 M⁻¹ s⁻¹ | 82 | 1 | 1 | 1 | 1 | 1 | 2 | 1 | 2 | 1 | 91.9% | 79.9% | 41.8% | 0.02 nM | 9.99e-06 s⁻¹ | 476000 M⁻¹ s⁻¹ | binding ratio (signal / signal of MOR03207) [15]: 2; binding ratio (signal / signal of MOR03207) [16]: 5; binding ratio (signal / signal of MOR03207) [17]: 1; binding ratio (signal / signal of MOR03207) [18]: 2; binding ratio (signal / signal of MOR03207) [19]: 2; binding ratio (signal / signal of MOR03207) [20]: 3; binding ratio (signal / signal of MOR03207) [21]: 2; binding ratio (signal / signal of MOR03207) [22]: 2; binding ratio (signal / signal of MOR03207) [23]: 2; binding ratio (signal / signal of MOR03207) [24]: 1; binding ratio (signal / signal of MOR03207) [25]: 4; binding ratio (signal / signal of MOR03207) [26]: 2; binding ratio (signal / signal of MOR03207) [27]: 2; binding ratio (signal / signal of MOR03207) [28]: 19
